Source: publication PMC3530536

Target: recombinant RRM2 domain (aa 190–265) of human WT TDP-43 (human) (UniProt Q13148)
Test: SEC; Superdex 75 10/300 in PBS, 0.5 mL/min; soluble RRM2 2–3 mg/mL after heat at 70°C for 10 min, nucleotide-free

stoichiometry N: 2
Substance: recombinant RRM2 domain (aa 190–265) of human WT TDP-43 (from UniProt Q13148 190-265) (domain or fragment)
